Columns and labels:
HLA-A*02:01 [1] = experiment: IEDB peptide-MHC binding, purified MHC/competitive/fluorescence; ≥ and ≤ were set here for values at or beyond the usual limits of such assays
HLA-A*24:02 = experiment: as above
HLA-A*30:02 = experiment: IEDB peptide-MHC binding, purified MHC/competitive/radioactivity; filed as Kd, often an IC50 or EC50 that approximates it; ≥ and ≤ were set here for values at or beyond the usual limits of such assays
HLA-B*51:01 = experiment: as above
HLA-B*53:01 = experiment: as above
HLA-A*02:01 [2] = experiment: IEDB peptide-MHC binding, purified MHC/competitive/fluorescence; filed as Kd, often an IC50 or EC50 that approximates it; ≥ and ≤ were set here for values at or beyond the usual limits of such assays
HLA-B*35:01 = experiment: IEDB peptide-MHC binding, purified MHC/competitive/radioactivity; filed as Kd, often an IC50 or EC50 that approximates it; ≥ and ≤ were set here for values at or beyond the usual limits of such assays
HLA-B*40:01 = experiment: IEDB peptide-MHC binding, purified MHC/direct/fluorescence; filed as Kd, often an IC50 or EC50 that approximates it; ≥ and ≤ were set here for values at or beyond the usual limits of such assays
HLA-A*02:02 = experiment: IEDB peptide-MHC binding, purified MHC/competitive/radioactivity; filed as Kd, often an IC50 or EC50 that approximates it; ≥ and ≤ were set here for values at or beyond the usual limits of such assays
HLA-A*02:03 = experiment: as above
HLA-A*02:06 = experiment: as above
HLA-A*26:01 = experiment: IEDB peptide-MHC binding, purified MHC/competitive/fluorescence; filed as Kd, often an IC50 or EC50 that approximates it; ≥ and ≤ were set here for values at or beyond the usual limits of such assays; details: source organism: Influenza A virus (A/Sichuan/2/1987(H3N2))
HLA-B*15:01 = experiment: IEDB peptide-MHC binding, purified MHC/direct/fluorescence; filed as Kd, often an IC50 or EC50 that approximates it; ≥ and ≤ were set here for values at or beyond the usual limits of such assays; details: source organism: Mammarenavirus juninense
HLA-B*58:01 = experiment: as above; details: source organism: Mammarenavirus juninense
HLA-A*01:01 = experiment: as above; details: source organism: Orthohantavirus hantanense
[3] = source organism: Sudan ebolavirus
[4] = source organism: Zaire ebolavirus
[5] = source organism: Dengue virus 3 Martinique/1243/1999
[6] = source organism: Dengue virus 1 Singapore/S275/1990
[7] = source organism: Dengue virus 2 Jamaica/1409/1983
[8] = source organism: Vaccinia virus WR
[9] = source organism: SARS coronavirus Tor2
[10] = source organism: Mycobacterium tuberculosis
[11] = source organism: Dengue virus 1 Brazil/97-11/1997

With AFFLYDRLA the IC50 (HLA-A*02:01 [1]; [3]) was 35800 nM and the IC50 (HLA-A*24:02; [3]) was at least 151000 nM.

In the case of AFWETKKNL, the IC50 (HLA-A*02:01 [1]; [4]) is reported as at least 242000 nM and the IC50 (HLA-A*24:02; [4]) is reported as 2480 nM.

AKAIITPIV showed an IC50 (HLA-A*02:01 [1]; source organism: Vaccinia virus Copenhagen) of at least 147000 nM.

ASDTPSATT gave an IC50 (HLA-A*02:01 [1]; [4]) of at least 614000 nM.

For AWNVWEVEDY, the Kd (HLA-A*30:02; [5]) was at least 69700 nM.

For AYAQMWSLMY, the Kd (HLA-A*30:02; [5]) was 169 nM.

In the case of CPDDQRAWNI, the Kd (HLA-B*51:01; [6]) is reported as 18000 nM and the Kd (HLA-B*53:01; [6]) is reported as 120 nM.

DIKPDNILL was tested, and the Kd (HLA-A*02:01 [2]; source organism: Trichodesmium erythraeum IMS101) was at least 20000 nM.

In the case of DQNYVCKHTY, the Kd (HLA-A*30:02; [5]) is reported as 8020 nM.

With DSFLLMLCL the IC50 (HLA-A*24:02; [4]) was at least 313000 nM.

With EPETPNMDVI the Kd (HLA-B*53:01; [5]) was 10800 nM.

For ETFLQSPPI, the IC50 (HLA-A*02:01 [1]; [3]) was at least 143000 nM and the IC50 (HLA-A*24:02; [3]) was 13900 nM.

With FAGPVSQHNY the Kd (HLA-A*30:02; [7]) was 11.6 nM, the Kd (HLA-B*35:01; [7]) was 38.4 nM and the Kd (HLA-B*53:01; [7]) was 435 nM.

In the case of FEKEGYSLV, the Kd (HLA-B*40:01; source organism: Influenza A virus (A/Netherlands/458/98 (H3N2))) is reported as 118 nM.

FMSMVSHEL gave a Kd (HLA-A*02:01 [2]; source organism: Bacillus anthracis str. A0488) of 0.5 nM.

FPVSIPITA showed a Kd (HLA-B*35:01; [7]) of 1.7 nM and a Kd (HLA-B*51:01; [7]) of 3720 nM.

FTNSQIFNI showed a Kd (HLA-A*02:02; [8]) of 6.89 nM, a Kd (HLA-A*02:03; [8]) of 7.11 nM and a Kd (HLA-A*02:06; [8]) of 4.79 nM.

FVTDYVHEGV was tested, and the Kd (HLA-A*02:02; [8]) was 23.8 nM, the Kd (HLA-A*02:03; [8]) was 1.68 nM and the Kd (HLA-A*02:06; [8]) was 10.6 nM.

FVVFLLVTL showed a Kd (HLA-A*02:02; [9]) of 217 nM, a Kd (HLA-A*02:03; [9]) of 1640 nM and a Kd (HLA-A*02:06; [9]) of 37.7 nM.

Sequence GIVRQRVIP has an IC50 (HLA-A*24:02; [4]) of at least 151000 nM.

GLAWIPYFG was tested, and the IC50 (HLA-A*02:01 [1]; [4]) was 134 nM and the IC50 (HLA-A*24:02; [4]) was 62600 nM.

GLCNYGGIL was tested, and the Kd (HLA-A*02:02; [8]) was 97.7 nM, the Kd (HLA-A*02:03; [8]) was 125 nM and the Kd (HLA-A*02:06; [8]) was 1360 nM.

In the case of GLRQQLEDI, the Kd (HLA-A*02:02; [8]) is reported as 43 nM, the Kd (HLA-A*02:03; [8]) is reported as 4.72 nM and the Kd (HLA-A*02:06; [8]) is reported as 4310 nM.

Work on GMQFDKVYL yielded a Kd (HLA-A*02:02; [8]) of 13.4 nM, a Kd (HLA-A*02:03; [8]) of 277 nM and a Kd (HLA-A*02:06; [8]) of 1910 nM.

GPLRMVLAFI showed a Kd (HLA-B*51:01; source organism: Dengue virus 4 Philippines/H241/1956) of at least 35500 nM.

Sequence GRVNPGTYV has an IC50 (HLA-A*24:02; source organism: Variola virus) of 74.3 nM.

GVDFQESAD showed an IC50 (HLA-A*24:02; [4]) of at least 117000 nM.

With HAKYMVTDKT the Kd (HLA-A*02:02; [8]) was 9030 nM, the Kd (HLA-A*02:03; [8]) was at least 35000 nM and the Kd (HLA-A*02:06; [8]) was at least 65100 nM.

For HLRASTTENA, the Kd (HLA-A*02:02; [8]) was 488 nM, the Kd (HLA-A*02:03; [8]) was 37.9 nM and the Kd (HLA-A*02:06; [8]) was at least 69800 nM.

Sequence HYWTAQEQH has an IC50 (HLA-A*24:02; [3]) of 51100 nM.

Work on IAGLKIEEI yielded a Kd (HLA-A*02:02; [8]) of 7660 nM, a Kd (HLA-A*02:03; [8]) of 6090 nM and a Kd (HLA-A*02:06; [8]) of 1970 nM.

For IDNNTFVRL, the IC50 (HLA-A*02:01 [1]; [3]) was at least 149000 nM and the IC50 (HLA-A*24:02; [3]) was 67900 nM.

For ILPDKIDGL, the Kd (HLA-A*02:02; [8]) was 1.04 nM, the Kd (HLA-A*02:03; [8]) was 3.45 nM and the Kd (HLA-A*02:06; [8]) was 43.1 nM.

Work on ILPWTKISE yielded an IC50 (HLA-A*02:01 [1]; [8]) of at least 247000 nM and an IC50 (HLA-A*24:02; [8]) of 33100 nM.

Work on IPITAAAWY yielded a Kd (HLA-A*30:02; [7]) of 2.47 nM, a Kd (HLA-B*35:01; [7]) of 6.19 nM and a Kd (HLA-B*53:01; [7]) of 26.6 nM.

In the case of ITYGACPRY, the Kd (HLA-A*26:01) is reported as 34.3 nM.

Work on IVPDADPPI yielded a Kd (HLA-A*02:02; [8]) of 5080 nM, a Kd (HLA-A*02:03; [8]) of 10700 nM and a Kd (HLA-A*02:06; [8]) of 274 nM.

IVSKCIVQSV was tested, and the Kd (HLA-A*02:02; [8]) was 123 nM, the Kd (HLA-A*02:03; [8]) was 30.8 nM and the Kd (HLA-A*02:06; [8]) was 552 nM.

Sequence KISVEKIKQT has a Kd (HLA-A*02:02; [8]) of 1230 nM, a Kd (HLA-A*02:03; [8]) of 8960 nM and a Kd (HLA-A*02:06; [8]) of at least 21000 nM.

KLAGGVAVI gave an IC50 (HLA-A*02:01 [1]; [10]) of 120 nM.

Sequence KLGFDEIKGL has a Kd (HLA-A*02:01 [2]; source organism: Variola virus) of 134 nM.

Sequence KLIADSIDF has a Kd (HLA-B*15:01) of 67.5 nM and a Kd (HLA-B*58:01) of 1620 nM.

In the case of KLQERLAKL, the IC50 (HLA-A*02:01 [1]; [10]) is reported as 100 nM.

Sequence KSSLEVYIY has a Kd (HLA-A*01:01) of 158 nM.

For LAFSIMKSV, the Kd (HLA-B*51:01; [5]) was 155 nM.

LEVPAMGVL was tested, and the Kd (HLA-B*40:01; [10]) was 25 nM.

Sequence LIFNVKSKLL has a Kd (HLA-A*02:02; [8]) of 2390 nM, a Kd (HLA-A*02:03; [8]) of 6690 nM and a Kd (HLA-A*02:06; [8]) of at least 28500 nM.

LITLILSNKL showed a Kd (HLA-A*02:02; [8]) of 225 nM, a Kd (HLA-A*02:03; [8]) of 293 nM and a Kd (HLA-A*02:06; [8]) of 633 nM.

With LLLEWLAEV the Kd (HLA-A*02:02; [9]) was 0.114 nM, the Kd (HLA-A*02:03; [9]) was 0.627 nM and the Kd (HLA-A*02:06; [9]) was 0.105 nM.

LLPLTSLVIT gave a Kd (HLA-A*02:02; [8]) of 999 nM, a Kd (HLA-A*02:03; [8]) of 1320 nM and a Kd (HLA-A*02:06; [8]) of 1610 nM.

LMIGNYFSGV gave a Kd (HLA-A*02:02; [8]) of 0.126 nM, a Kd (HLA-A*02:03; [8]) of 0.0932 nM and a Kd (HLA-A*02:06; [8]) of 0.132 nM.

In the case of LMSFTILCL, the Kd (HLA-A*02:02; [9]) is reported as 0.269 nM, the Kd (HLA-A*02:03; [9]) is reported as 16.3 nM and the Kd (HLA-A*02:06; [9]) is reported as 1.84 nM.

In the case of LPIRYQTPAI, the Kd (HLA-B*35:01; [7]) is reported as 51.9 nM, the Kd (HLA-B*51:01; [7]) is reported as 69.1 nM and the Kd (HLA-B*53:01; [7]) is reported as 13.5 nM.

LPLPWLPGAD was tested, and the Kd (HLA-B*35:01; [7]) was 2490 nM and the Kd (HLA-B*51:01; [7]) was at least 32600 nM.

In the case of LPLPWTSGAS, the Kd (HLA-B*35:01; [11]) is reported as 938 nM and the Kd (HLA-B*51:01; [11]) is reported as 10600 nM.

— the Immune Epitope Database (IEDB)
